Where a chain is given by its changes, count along the chain named. Names may count otherwise.
T1: feline IL-5 (Kingfisher Biotech; RP1152F) (feline, UniProt O77515 20-134)
T1 construct: Bought recombinant protein; also called fIL-5; fIL5
T1 sequence (looked up): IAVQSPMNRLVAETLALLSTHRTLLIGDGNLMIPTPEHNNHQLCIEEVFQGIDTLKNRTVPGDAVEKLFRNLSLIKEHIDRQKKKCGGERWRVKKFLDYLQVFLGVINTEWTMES

B1: MtxB antibody (felinized clone 154) (antibody, IgG1a, V domains shown)
VH: DVQLVESGGDLVKPGGSLRLTCVGSGFTFSNYAMSWVRQAPGEGLQWVATIGSGGHYTYHPDSVKGRFTISRDNAKNTLYLQMNSLQTEDTASYYCTRETDGYDGMDYWGQGTLVTVSS
VL: DIVMTQTPLSLSVTPGEPASISCRASQSISDYLYWYLQKPGQSPRRLIYYASQSISGVPDRFSGSGSGTDFTLRISRVEADDVGVYYCQNGHSFPYTFGPGTKLEIK
notes: Feline IgG1a (GenBank BAA32229.1) / feline kappa (GenBank ATI97438.1); also called MatrixB; Matrix B
B2: MtxB Fab (Fab, V domains shown)
VH: B1 VH
VL: B1 VL
notes: Fab made in E. coli from the phagemid: heavy chain variable domain, CH1 and partial hinge; light chain of MtxB; also called Matrix B; original MtxB Fab
B3: MtxB N106Q (LCDR3) variant (antibody, V domains shown)
VH: B1 VH
VL: B1 VL with N90Q
notes: Feline IgG with feline kappa constant domain
B4: LxH3-G2 Fab (affinity matured MtxB) (Fab, V domains shown)
VH: B1 VH with D104G, G105P, M106L, Y108L
VL: DIVMTQTPLSLSVTPGEPASISCRASQSISDYLYWYLQKPGQSPRLVINWGSQRASGVPDRFSGSGSGTDFTLRISRVEADDVGVYYCQQGAIFPYTFGPGTKLEIKR
notes: Fab from the Stage B library on MtxB; the entries named are the parent, the changed regions are told under detail
B5: 1L2-E7 Fab (MtxB LCDR2 variant) (Fab, V domains shown)
VH: B1 VH
VL: B1 VL with L47I, I48F, Y49F, Y50A, A51S, Q53L, S54Y, I55D
notes: Fab from the MtxB LCDR2 library; the entry named is the parent, the changed CDR is told under detail
B6: 1H3-C6 Fab (MtxB HCDR3 variant) (Fab, V domains shown)
VH: B1 VH with D104G, G105P, Y108V
VL: B1 VL
notes: Fab from the MtxB HCDR3 library; the entry named is the parent, the changed CDR is told under detail
B7: LxH3-G4 Fab (affinity matured MtxB) (Fab, V domains shown)
VH: B1 VH with D104G, G105P, Y108L
VL: B4 VL with L46R, V47L, N49Y, W50F, Q53L, R54L, A55S, A92L, I93L
notes: as for B4
B8: 1L2-D1 Fab (MtxB LCDR2 variant) (Fab, V domains shown)
VH: B1 VH
VL: B1 VL with L47I, I48F, Y49F, Y50T, A51E, S54R, I55A
notes: as for B5
B9: 1L2-D12 Fab (MtxB LCDR2 variant) (Fab, V domains shown)
VH: B1 VH
VL: B1 VL with L47I, I48F, Y49F, Y50G, A51Y, Q53G, S54T, I55K
notes: as for B5
B10: LxH3-G7 Fab (affinity matured MtxB) (Fab, V domains shown)
VH: B1 VH with D104G, G105P, M106I, D107L, Y108D
VL: B4 VL with I48F, W50H, G51A, Q53P, R54V, A55P, A92I, I93R
notes: as for B4
B11: LxH3-E2 Fab (affinity matured MtxB) (Fab, V domains shown)
VH: B1 VH with D104G, G105P, M106I, D107L, Y108D
VL: B4 VL with L46R, V47I, I48F, W50H, G51L, Q53P, R54S, A55S, A92S, I93V
notes: as for B4
B12: 1L2a-H2 Fab (MtxB LCDR2 variant) (Fab, V domains shown)
VH: B1 VH
VL: B1 VL with L47V, I48F, Y50T, A51D, Q53A, S54E, I55V
notes: as for B5
B13: LxH3-F12 Fab (affinity matured MtxB) (Fab, V domains shown)
VH: B1 VH with D104G, G105P, M106L, Y108L
VL: B4 VL with V47I, I48F, W50P, G51L, Q53V, A55R, A92Y, I93V
notes: as for B4
B14: LxH3-E8 Fab (affinity matured MtxB) (Fab, V domains shown)
VH: B1 VH with D104G, G105P, M106I, D107L, Y108D
VL: B4 VL with V47I, W50Q, G51A, Q53S, R54K, A55L, A92P, I93L
notes: as for B4
B15: MtxB N106S (LCDR3) variant (antibody, V domains shown)
VH: B1 VH
VL: B1 VL with N90S
notes: as for B3
B16: LxH3-G10 Fab (affinity matured MtxB) (Fab, V domains shown)
VH: B1 VH with D104G, G105P, M106I, D107L, Y108D
VL: B4 VL with L46R, V47I, N49F, W50T, A55N, I93F
notes: as for B4
B17: 2L2-G12 Fab (MtxB LCDR2 variant) (Fab, V domains shown)
VH: B1 VH
VL: B1 VL with L47V, I48F, Y49F, Y50T, A51P, Q53D, I55A
notes: Fab from the MtxB LCDR2 library
B18: LxH3-F4 Fab (affinity matured MtxB) (Fab, V domains shown)
VH: B1 VH with D104G, G105P, D107L, Y108D
VL: B4 VL with V47L, I48F, W50Y, Q53V, R54L, A92Y, I93L
notes: as for B4
B19: LxH3-F5 Fab (affinity matured MtxB) (Fab, V domains shown)
VH: B1 VH with D104G, G105P, M106L, Y108L
VL: B4 VL with V47I, W50P, G51M, Q53G, R54Q, A55L, A92L, I93L
notes: as for B4
B20: LxH3-F11 Fab (affinity matured MtxB) (Fab, V domains shown)
VH: B1 VH with D104G, G105P, M106I, D107L, Y108D
VL: B4 VL with L46R, I48F, N49F, W50H, G51S, Q53Y, A55Q, A92M, I93L, Y96F
notes: as for B4
B21: 1L2-H7 Fab (MtxB LCDR2 variant) (Fab, V domains shown)
VH: B1 VH
VL: B1 VL with L47V, I48F, Y49F, Y50T, A51V, Q53G, S54G, I55V
notes: as for B5

What was measured:
[1] = molecular target: T1, feline IL-5 (Kingfisher Biotech; …); experiment: SPR Biacore T200, IgG captured on goat anti-feline IgG-Fc CM5 chip, feline IL-5 as analyte
Experimental: (§1) MtxA antibody and MtxB antibody had the highest affinity to feline IL-5 as determined by surface plasmon resonance (SPR) using a Biacore T200 instrument. Goat anti-feline IgG-Fc fragment specific (Jackson ImmunoResearch; 102-005-008) at 30 μg/ml in 10 mM acetate, pH 5.0 was immobilized onto CM5 sensor chip (Cytiva; 29104988) with NHS coupling at 10 μL/min for 420 seconds and then other sites blocked with ethanolamine at 10 μL/min for 420 seconds. The anti-feline IL-5 antibodies were captured at 2 μg/ml onto the anti-feline IgG CM5 chip for 60 sec at 10 μl/min. […] The kinetics of the feline IL-5 binding to the antibodies is shown below in FIG. 2. In addition, an IL-5 receptor blocking assay was completed by capturing biotinylated receptors on a Series S CAP chip and Biotin CAPture reagent (Cytiva). For this assay, a fusion protein was generated containing the extracellular domain of feline IL-5Rα (XP_011278466.1) linked to a 2X-Gly-Gly-Gly-Ser (SEQ ID NO:89) linker-linked to the human IgG1 Fc linked to the AviTag sequence (FIG. 1B, SEQ ID NO:2) and subcloned into the pcDNA3.4 mammalian expression vector. This construct was expressed in CHO-S cells and purified with protein A chromatography followed by a polishing chromatography step with SEC. The purified recombinant protein was biotinylated in vitro using the BirA biotin ligase. Antibodies were titrated in running buffer (1×PBSP+, Cytiva) and pre-incubated with 50 nM IL-5 (Kingfisher) at multiple molar ratios. Binding was assessed by injecting these samples over the captured receptor for 180 s. The Rmax was used to calculate the inhibition percent by dividing the Rmax of the pre-mixed samples by an average of the IL-5-only Rmax samples that were collected throughout the assay. The ability of each antibody to block binding of feline IL5 was measured (Table 2).

[2] = molecular target: T1, feline IL-5 (Kingfisher Biotech; …); experiment: Biacore, antibody pre-incubated with 50 nM IL-5 at 1:1, over captured biotinylated IL-5Rα-Fc-AviTag (competitor m3)
Experimental: as §1

[3] = molecular target: T1, feline IL-5 (Kingfisher Biotech; …); experiment: SPR Biacore T200, IgG captured on goat anti-feline IgG CM5 chip, feline IL-5 as analyte
From the text: Asparagine deamidation for asparagine residues and oxidation at methionine residues can negatively impact the potency and the stability of an antibody (Xu et al., 2019. MABS, 11:239-264). These post-translational modifications can be particularly problematic when they reside in the CDRs. […] DNA constructs were synthesized (GeneArt) encoding the MtxB clone with substitutions to eliminate the potential sequence liabilities. For the NG site in LCDR3, the Asn (position 106) was substituted with either a Gln or a Ser and for the Met in HCDR3 (position 115), a Len was substituted. The DNA constructs with the light chain variants were fused to the feline kappa constant domain. These DNA constructs were subcloned into the pcDNA3.4 expression vector (ThermoFisher) and expressed with the ExpiCHO system (ThermoFisher). The antibodies were purified with mAbSelect SuRe chromatography (Cytiva) and buffer exchanged into 20 mM sodium acetate, 136 mM sodium chloride, pH 5.5. The variants were tested in an SPR experiment using a Biacore T200 instrument to measure their affinity to feline IL-5 (Kingfisher Biotech; RP1152F). Goat anti-feline IgG was immobilized onto a Series S CM5 sensor chip (Cytiva) and the original MtxB clone and the variants containing the amino acid substitutions were captured on the chip at 5 μg/ml.

[4] = molecular target: T1, feline IL-5 (Kingfisher Biotech; …); experiment: ELISA on plate-coated feline IL-5, Fab at 65 ng/ml dimerized with goat anti-feline IgG F(ab')2, anti-goat-HRP detection
[5] = molecular target: T1, feline IL-5 (Kingfisher Biotech; …); experiment: ELISA, Fab culture supernatant on plate-coated feline IL-5, anti-feline Fab'2-HRP detection
From the text: Fragments containing the pre-selected CDR pools from these libraries were randomly paired by overlap PCR to create a new library incorporating mutations throughout all targeted CDRs. The phage propagated following round 4 of selection were used for PCR amplication of LCDR2, LCDR3 and HCDR3. The PCR-amplified fragment containing the light chain and the heavy chain were ligated into a phagemid vector and transformed into E. coli. The number of transformants was approximately 2E+10. Library plasmid DNA was purified using a midi-prep purification method. Ten pg of the library plasmid DNA was transformed into E. coli for growth and propagation of the Fab phage. After overnight phage production, phage was precipitated from the culture supernatant and resuspended in blocking buffer (1% BSA/PBS). The phage were treated at 58° C. for 10 minutes to remove unstable clones prior to the selections. The input phage was incubated for 30 minutes in a blocked ELISA plate coated with feline IL-5. The ELISA plate was washed with PBS, pH 7.4 followed by acid elution of the bound phage. The output phage was then used to infect E. coli for propagation for the next round of selection. For rounds 1, 2, 3 and 4, the ELISA plates were coated with 10 μg/ml, 8 μg/ml, 5 μg/ml and 1 μg/ml, respectively. The number of washes after each round were 3, 5, 10 and 10 for rounds 1, 2, 3 and 4, respectively. Ninety-three clones from the round 4 output were grown overnight for Fab production and tested for binding to feline IL-5 in an ELISA format. For this assay, supernatants from the overnight cultures were incubated in Immulon 4 HBX high-binding plate that was coated with 10 μg/ml feline IL-5 (Kingfisher Biotech; Cat #RP1152F) and blocked with 1% bovine serum albumin in phosphate buffered saline (PBS), pH 7.4. The controls added included the MtxB clone and clone 1H3-C6 which was the top affinity clone from the first stage A1 step. The Fab binding to the feline IL-5 was detected with anti-feline Fab′₂-HRP conjugate.
The results are shown in Table 8A which compares relative Fab binding affinity to feline IL-5 by Fabs disclosed herein. IL-5 binding was detected with anti-feline Fab′₂-HRP conjugate. Differences in CDR amino acids compared to the MtxB are underlined. The data in the last column are absorbance following addition of substrate to detect the HRP conjugate.

Row | Binder | Normalized fIL-5 ELISA value, 65 ng/ml Fab [4] | fIL5 Fab (ELISA absorbance) [5] | also measured
1 | B1 |  |  | Kd [1]: 5.02 nM; koff [1]: 0.000548 s⁻¹; kon [1]: 141000 M⁻¹ s⁻¹; % blocking 1:1 [2]: 74.2%; Kd [3]: 5.9 nM; koff [3]: 0.00053 s⁻¹; kon [3]: 90000 M⁻¹ s⁻¹
2 | B2 | 0.165 | 0.054 absorbance | 
3 | B3 |  |  | Kd [3]: 0.56 nM; koff [3]: 8.6e-05 s⁻¹; kon [3]: 150000 M⁻¹ s⁻¹
4 | B4 |  | 0.653 absorbance | 
5 | B5 | 0.366 |  | 
6 | B6 | 0.967 | 0.1 absorbance | 
7 | B7 |  | 0.545 absorbance | 
8 | B8 | 0.492 |  | 
9 | B9 | 0.303 |  | 
10 | B10 |  | 0.672 absorbance | 
11 | B11 |  | 0.809 absorbance | 
12 | B12 | 0.559 |  | 
13 | B13 |  | 0.513 absorbance | 
14 | B14 |  | 0.748 absorbance | 
15 | B15 |  |  | Kd [3]: 3.6 nM; koff [3]: 0.00027 s⁻¹; kon [3]: 75000 M⁻¹ s⁻¹
16 | B16 |  | 0.877 absorbance | 
17 | B17 | 0.251 |  | 
18 | B18 |  | 0.738 absorbance | 
19 | B19 |  | 1.04 absorbance | 
20 | B20 |  | 0.782 absorbance | 
21 | B21 | 0.283 |  | 
